Assay: soluble on expression in E. coli; label from the status in PepcDB or PDB records

Sequence | soluble on expression in E. coli
MSLKITDVRAHQIRIPYDAGVASFRQGASAITALDMVIVEVTTDAGLTGWGDAFAYVCPRTTRSAVEEMIAPQARGLEVPDAAGIAAVMEQIQRNLHLFGRYGITMFAISGLDIALWDLAAKIKGVPVHRLLGETRRPAIPAYASLLRIGSPDNIAAECKKALALGYGAIKLHETTAPAVYAAREAIGPGVPLMVDMNCPLSGEQAIAFAGTCRDAQPMFLEEPVWPPEDFAALAEVRSKGGLGVAAGENACTEHQFRQMMNAGAVSHAQPSVIKVGGITEFLKVAALADRLGVKIVPHSPYFGPGLLATLHLLAGRDDGFVEMFYLKREACLWGGRADVDATGHVAVPTGLGLGYEPDRGVMERYRVAEGHHHHHH | not soluble
YPFYAQYNYDSPREATGKIVCANCHLAKKTVEIEVPQAVLPDTVFKAVVKVPYDLDIQQVQADGSPSGLNVGAVLMLPEGFKLAPPERVDEELMEEVGDFYYLVTPYSETDENILLAGPLPGEDYQEMIFPILSPNPATDAGVYFGKYSIHLGGNRGRGQVYPTGELSNNNAFSASIAGTIAAIEDNGFGFDVTIQPEDGDAVVTSILPGPELIVAVGDTVEAGQLLTTNPNVGGFGQMDSEIVLQSSS | soluble
MAPKCWSNLPSDVKREVLEHGDCQQWFNVRLCSRADMNLVDSLKLRIPFLKIQISNTTFSIIIVESPSAILRIDLHQKSGGNAEFSVEIFKNSDLELGNLIKTIENTTLDAEISNLLEKSIFHRKIDIATCQIQADGLQAENPVLAMIHAKFTENAPKKLIFSGKSMEENRFLAKFFENLNIDFVFRSWRKDLSREWGEGMNHLRIKIFEVSKWTTLLGDFEHFTAYDEIEPVMYMARILSRPMKRSHWFPGFHVPVAERLFRQIFRQEMFEKFENHSIRKSPINLKLWIFVKFTKCGISIFVGDPKDFNERDGTCDLEWMCPNCAPKTMENWFFRETIGKLHF | not soluble
MGHHHHHHSHMTTNSLLIIDFEFTMPDGKYSPQNFFPEIIEAGIVKSIDDEVVETFSSYVRPKKFPKLTKRCKSFLKITQKQVDEGMRFEDFIRKLNELDPEKNSTIITWGNMDMKVLKQNCMFNHIPFPFKGEMRDLSLEYKNFFGDRTLTGLWKAAEEYGDSGTGTHHKALDDALTAYKLFKLVEQDKQYLEKPKPPTIGERIDLTELLKRAT | soluble
MGSVNGAEALKALYALQEKDLEIDRLRAEAESPPEELVALQGQVEALEERLTNLLERRAELEREYNRHSLDIEDLSAKEKQAEEEQKRAQSAREQTQYENRIQQIKDRIRELLELSTPIMEAMENLEAEIAQVEEELAALRPRLQELLEANRARVAELEAAIAAKVEERTTMAAAIPAQILKEYEAIRRARRGTGVARMAAQGQVYRCEGCNVVLPTHVAQKVVRGQVVRCPSCGRLLWKGE | soluble
MKITTEALRWWEDGETVGGRDLVGGGTWLGCTRHGRLAFLTNFKEASSFPAAKSRGDLPLRYLQSEKSPAEFAEEIQDEISLYNGFNLVVAHVLSKSMIYITNRPPHGDKLVTQVSPGIHVLSNANLDSPWPKVNSPNCVFLSLQCLRLREGFQQLLAENGSGEFPVKTMVEEVMTNTVKDEETELPHVFTPETEYHLSSIFVDMQRPTGRYGTRSISAIIVKSHGDGGGDGEICFYERHLEEGDSWKEHTQQFVIIQNQSI | soluble
MTKNLLVELGLEELPAYVVTPSEKQLGEKMAAFLKGKRLSFEAIQTFSTPRRLAVRVTGLADKQSDLTEDFKGPAKKIALDSDGNFTKAAQGFVRGKGLTVEDIEFREIKGEEYVYVTKEEIGQAVEAIVPGIVDVLKSLTFPVSMHWAGNSFEYIRPVHTLTVLLDEQEFDLDFLDIKGSRVSRGHRFLGQETKIQSALSYEEDLRKQFVIADPCEREQMIVDQIKEIEAKHGVRIEIDADLLNEVLNLVEYPTAFMGSFDAKYLEVPEEVLVTSMKEHQRYFVVRDQDGKLLPNFISVRNGNAERLKNVIKGNEKVLVARLEDGEFFWREDQKLVISDLVEKLNNVTFHEKIGSLREHMIRTGQITVLLAEKASLSVDETVDLARAAAIYKFDLLTGMVGEFDELQGIMGEKYTLLAGETPAVAAAIREHYMPTSAEGELPESKVGAVLAIADKLDTILSFFSVGLIPSGSNDPYALRRATQGVVRILDAFGWHIAMDELIDSLYALKFDSLTYENKAEVMDFIKARVDKMMGSTPKDIKEAVLAGSNFV | not soluble
RPNKGAQQEDERIIQAFDKAIQYMSKRKIGALITIERNTGLDEYIETGIDLDADITGELLINIFIPNTPLHDGAVIIKNEKIAVASAYLPLSESNLIPKEFGTRHRAAVGISEVSDAITIVVSEETGDVSLTLNNELIPGL | not soluble

Reference: the DeepSol protein solubility set
